# Data: US20160251438A1 (LUDWIG INSTITUTE FOR CANCER RESEARCH, published 2016)
# Assays:
# [1] = biological target: GARP R166M/H167E / TGF-β1 complex (human, UniProt Q14392 20-662; P01137 30-390); assay: flow cytometry titration on transfected 293T cells; grade of Reduced avidity read by footnote 3
# Procedure: (§1) Intensities of staining at each concentration of antibody relative to the maximal intensity measured at 5 μg/ml were determined as follows:
# (§2) The relative staining intensities were plotted according to the concentration of antibody used for staining, and a non-linear regression analysis was used with the Prism software to determine an EC₅₀ value for binding of the antibody to the WT and to each of the various mutant GARP/TGF-β1 complexes. If the ratio between the EC₅₀ measured on the mutant and the EC₅₀ measured on the WT was >2, the mutation was considered to induce a reduced avidity for binding by the antibody. The ratio of EC₅₀ (mutant vs WT) for MHG-8 and LHG-10 are indicated below each mutation on FIG. 19, parts A and B, respectively.
# [2] = biological target: GARP / TGF-β1 H270Y complex (human, UniProt Q14392 20-662; P01137 30-390); assay: as above
# Procedure: as §1, §2
# [3] = biological target: GARP L140K/E142L / TGF-β1 complex (human, UniProt Q14392 20-662; P01137 30-390); assay: as above
# Procedure: as §1, §2
# [4] = biological target: GARP / TGF-β1 S337A complex (human, UniProt Q14392 20-662; P01137 30-390); assay: as above
# Procedure: as §1, §2
# [5] = biological target: GARP / TGF-β1 Q272Y complex (human, UniProt Q14392 20-662; P01137 30-390); assay: as above
# Procedure: as §1, §2
# [6] = biological target: GARP G139N / TGF-β1 complex (human, UniProt Q14392 20-662; P01137 30-390); assay: as above
# GARP G139N / TGF-β1 complex, sequence (Q14392 20-662 G139N limits assumed, chain 1 of 2): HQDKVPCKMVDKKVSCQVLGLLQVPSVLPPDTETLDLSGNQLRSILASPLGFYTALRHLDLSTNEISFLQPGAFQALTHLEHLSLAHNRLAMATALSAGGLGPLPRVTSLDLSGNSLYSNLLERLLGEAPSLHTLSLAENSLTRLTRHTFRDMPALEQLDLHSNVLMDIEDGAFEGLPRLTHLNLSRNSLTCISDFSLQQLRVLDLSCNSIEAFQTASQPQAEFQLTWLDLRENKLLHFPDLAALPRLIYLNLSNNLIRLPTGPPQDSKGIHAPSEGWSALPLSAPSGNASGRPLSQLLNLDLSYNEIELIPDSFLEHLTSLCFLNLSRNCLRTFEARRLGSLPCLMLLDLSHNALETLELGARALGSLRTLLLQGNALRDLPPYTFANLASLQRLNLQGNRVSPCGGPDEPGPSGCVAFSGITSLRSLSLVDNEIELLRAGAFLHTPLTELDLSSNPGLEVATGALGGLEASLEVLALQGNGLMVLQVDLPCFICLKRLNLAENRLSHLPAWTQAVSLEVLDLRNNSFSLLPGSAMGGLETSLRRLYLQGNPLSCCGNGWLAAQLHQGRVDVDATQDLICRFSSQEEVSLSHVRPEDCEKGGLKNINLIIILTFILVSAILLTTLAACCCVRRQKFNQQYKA
# GARP G139N / TGF-β1 complex, sequence (P01137 30-390 limits assumed, chain 2 of 2): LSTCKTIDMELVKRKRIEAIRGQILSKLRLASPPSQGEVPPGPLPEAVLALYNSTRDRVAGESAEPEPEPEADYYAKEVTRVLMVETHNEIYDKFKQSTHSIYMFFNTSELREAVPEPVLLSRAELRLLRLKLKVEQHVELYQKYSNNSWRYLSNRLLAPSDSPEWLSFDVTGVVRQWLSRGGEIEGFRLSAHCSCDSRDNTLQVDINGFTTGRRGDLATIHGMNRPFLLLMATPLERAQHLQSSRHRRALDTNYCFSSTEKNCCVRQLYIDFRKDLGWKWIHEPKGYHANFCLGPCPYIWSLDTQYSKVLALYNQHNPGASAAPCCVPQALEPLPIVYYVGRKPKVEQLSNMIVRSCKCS
# Procedure: as §1, §2
# [7] = biological target: GARP / TGF-β1 Y336A complex (human, UniProt Q14392 20-662; P01137 30-390); assay: as above
# Procedure: as §1, §2
# [8] = biological target: GARP R170A / TGF-β1 complex (human, UniProt Q14392 20-662; P01137 30-390); assay: as above
# Procedure: as §1, §2
# [9] = biological target: GARP / TGF-β1 Q269Y complex (human, UniProt Q14392 20-662; P01137 30-390); assay: as above
# Procedure: as §1, §2
# [10] = biological target: GARP M111T/A112G/T113M / TGF-β1 complex (human, UniProt Q14392 20-662; P01137 30-390); assay: as above
# Procedure: as §1, §2
# [11] = biological target: GARP / TGF-β1 R58A complex (human, UniProt Q14392 20-662; P01137 30-390); assay: as above
# Procedure: as §1, §2
# [12] = biological target: GARP T162D / TGF-β1 complex (human, UniProt Q14392 20-662; P01137 30-390); assay: as above
# GARP T162D / TGF-β1 complex, sequence (Q14392 20-662 T162D limits assumed, chain 1 of 2): as the sequence (Q14392 20-662 G139N limits assumed, chain 1 of 2) above, with N120G, T143D counted along it
# GARP T162D / TGF-β1 complex, sequence (P01137 30-390 limits assumed, chain 2 of 2): as the sequence (P01137 30-390 limits assumed, chain 2 of 2) above
# Procedure: as §1, §2
# [13] = biological target: GARP T165A / TGF-β1 complex (human, UniProt Q14392 20-662; P01137 30-390); assay: as above
# Procedure: as §1, §2
# [14] = biological target: GARP / TGF-β1 E146R complex (human, UniProt Q14392 20-662; P01137 30-390); assay: as above
# Procedure: as §1, §2
# [15] = biological target: T1, GARP / TGF-β1 K338E complex (human, UniProt Q14392 20-662; P01137 30-390); assay: as above
# T1 sequence (Q14392 20-662 limits assumed, chain 1 of 2): as the sequence (Q14392 20-662 G139N limits assumed, chain 1 of 2) above, with N120G counted along it
# T1 sequence (P01137 30-390 K338E limits assumed, chain 2 of 2): as the sequence (P01137 30-390 limits assumed, chain 2 of 2) above, with K309E counted along it
# Procedure: as §1, §2
# [16] = biological target: GARP S138G / TGF-β1 complex (human, UniProt Q14392 20-662; P01137 30-390); assay: as above
# Procedure: as §1, §2
# [17] = biological target: GARP R163E / TGF-β1 complex (human, UniProt Q14392 20-662; P01137 30-390); assay: as above
# Procedure: as §1, §2
# [18] = biological target: GARP E189A / TGF-β1 complex (human, UniProt Q14392 20-662; P01137 30-390); assay: as above
# Procedure: as §1, §2
# [19] = biological target: GARP Y137H / TGF-β1 complex (human, UniProt Q14392 20-662; P01137 30-390); assay: as above
# Procedure: as §1, §2
# [20] = biological target: GARP Y137H/S138G/G139N / TGF-β1 complex (human, UniProt Q14392 20-662; P01137 30-390); assay: as above
# Procedure: as §1, §2
# [21] = biological target: GARP R143Y / TGF-β1 complex (human, UniProt Q14392 20-662; P01137 30-390); assay: as above
# GARP R143Y / TGF-β1 complex, sequence (Q14392 20-662 R143Y limits assumed, chain 1 of 2): as the sequence (Q14392 20-662 G139N limits assumed, chain 1 of 2) above, with N120G, R124Y counted along it
# GARP R143Y / TGF-β1 complex, sequence (P01137 30-390 limits assumed, chain 2 of 2): as the sequence (P01137 30-390 limits assumed, chain 2 of 2) above
# Procedure: as §1, §2
# [22] = biological target: T1, GARP / TGF-β1 K338E complex; assay: FACS titration on transfected 293T; EC50 mutant / EC50 WT [cont.) B]
# Procedure: as §1, §2
binder,measurement,setting,value
"LHG-10 (antibody, human IgG1, V domains shown, llama-derived V regions in a full human IgG1) VH: EVQLVQPGAELRNSGASVKVSCKASGYRFTSYYIDWVRQAPGQGLEWMGRIDPEDGGTKYAQKFQGRVTFTADTSTSTAYVELSSLRSEDTAVYYCARNEWETVVVGDLMYEYEYWGQGTQVTVSS VL: DIQMTQSPTSLSASLGDRVTITCQASQSISSYLAWYQQKPGQAPKLLIYGASRLQTGVPSRFSGSGSGTSFTLTISGLEAEDAGTYYCQQYDSLPVTFGQGTKVELK",ratio of EC50 (mutant vs WT),[1],≤ 2 ratio
same,ratio of EC50 (mutant vs WT),[2],≤ 2 ratio
same,ratio of EC50 (mutant vs WT),[3],≤ 2 ratio
same,ratio of EC50 (mutant vs WT),[4],≤ 2 ratio
same,ratio of EC50 (mutant vs WT),[5],≤ 2 ratio
same,ratio of EC50 (mutant vs WT),[6],≤ 2 ratio
same,ratio of EC50 (mutant vs WT),[7],≤ 2 ratio
same,ratio of EC50 (mutant vs WT),[8],≤ 2 ratio
same,ratio of EC50 (mutant vs WT),[9],≤ 2 ratio
same,ratio of EC50 (mutant vs WT),[10],≤ 2 ratio
same,ratio of EC50 (mutant vs WT),[11],≤ 2 ratio
same,ratio of EC50 (mutant vs WT),[12],> 2 ratio
same,ratio of EC50 (mutant vs WT),[13],≤ 2 ratio
same,ratio of EC50 (mutant vs WT),[14],≤ 2 ratio
same,ratio of EC50 (mutant vs WT),[15],≤ 2 ratio
same,ratio of EC50 (mutant vs WT),[16],≤ 2 ratio
same,ratio of EC50 (mutant vs WT),[17],> 2 ratio
same,ratio of EC50 (mutant vs WT),[18],≤ 2 ratio
same,ratio of EC50 (mutant vs WT),[19],≤ 2 ratio
same,ratio of EC50 (mutant vs WT),[20],> 2 ratio
same,ratio of EC50 (mutant vs WT),[21],≤ 2 ratio
same,Ratio of EC50 (mutant / wt),[22],7.2
